The values below come from patent US20050260212A1 (PDL BIOPHARMA, published 2005).

The target in this assay is T1, human LFL2-Fc fusion protein (human, UniProt P01857-1 99-330 = IgG part, limits assumed).
T1 construct: domain: constant region of the human gamma 1 immunoglobulin heavy chain; In-frame fusion of the LFL2 extracellular domain with the human gamma 1 constant region; GenBank NP-570843.1 is printed for LFL2/LRRC15
The experiment in a line: SPR (BIAcore 3000), mAb immobilised on CM5, LFL2-Fc analyte, bivalent analyte model.

T1 sequence (P01857 other isoform, or with tags, fused parts or gaps limits assumed): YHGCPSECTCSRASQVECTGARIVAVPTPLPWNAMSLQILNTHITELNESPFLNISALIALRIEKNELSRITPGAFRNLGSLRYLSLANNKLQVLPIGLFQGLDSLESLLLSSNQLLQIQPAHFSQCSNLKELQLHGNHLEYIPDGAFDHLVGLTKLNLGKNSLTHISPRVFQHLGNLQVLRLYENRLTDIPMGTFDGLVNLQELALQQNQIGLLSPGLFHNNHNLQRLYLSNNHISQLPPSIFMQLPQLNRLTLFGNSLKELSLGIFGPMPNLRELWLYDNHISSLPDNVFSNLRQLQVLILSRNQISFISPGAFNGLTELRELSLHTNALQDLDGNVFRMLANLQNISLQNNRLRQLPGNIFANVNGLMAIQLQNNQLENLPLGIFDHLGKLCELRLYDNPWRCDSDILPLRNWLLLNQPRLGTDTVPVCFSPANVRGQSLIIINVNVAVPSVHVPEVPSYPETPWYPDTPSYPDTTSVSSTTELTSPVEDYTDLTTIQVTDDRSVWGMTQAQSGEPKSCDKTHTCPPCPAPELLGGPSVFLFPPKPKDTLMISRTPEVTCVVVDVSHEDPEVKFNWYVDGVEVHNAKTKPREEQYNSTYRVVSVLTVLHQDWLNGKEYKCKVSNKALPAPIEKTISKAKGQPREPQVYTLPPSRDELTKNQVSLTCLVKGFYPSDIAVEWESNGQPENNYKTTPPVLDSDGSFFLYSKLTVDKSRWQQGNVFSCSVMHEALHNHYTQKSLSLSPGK
Procedure: Kinetics measurements between human LFL2-Fc fusion protein and anti-LFL2 mAbs were performed using BIAcore 3000™ (BIAcore™, Sweden). Anti-LFL2 mAbs were immobilized with 100 RUs on Research-grade CM5 sensor chip by the BIAcore amine coupling reagents (N-ethyl-N′-dimethylaminopropylcarbodiimide, EDC; N-hydroxysuccinimide, NHS; and ethanolamine HCl, pH8.5). Assays were run at a flow rate of 30 ul/min at room temperature. Three-minute association phase of each LFL2-Fc was followed by ten-minute injection of running buffer (10 mM Hepes, 300 mM sodium chloride, 3 mM EDTA, 0.05% P-20, pH7.4) to monitor dissociation. The mAb surface was regenerated with 25 mM NaOH. […] Double referencing was applied in each analysis to eliminate background responses from reference surface and buffer only control. The affinity (KD) of binding was obtained by simultaneously fitting the association and dissociation phases of the sensorgram from the analyte concentration series using the bivalent analyte model from BIAevaluate software.

B1: anti-LFL2 mAb M25 (antibody, V domains shown)
VH: QVQLQQSGAELMKPGASVKISCKATGYKFSSYWIEWVKQRPGHGLEWIGEILPGSDTTNYNEKFKDKATFTSDTSSNTAYMQLSSLTSEDSAVYYCARDRGNYRAWFGYWGQGTLVTVS
VL: DIQMTQTSSLSASLGDRVTISCRASQDISNYLNWYQQKPDGTVKFLIYYTSRLHSGVPSRFSGSGSGTDYSLTISYLEPEDIATYFCQQGEALPWTFGGGTKLEIKR
In turn, B1 returned a Kd of 1.2 nM.
